T1: DLG3_3, Q92796
T1 sequence (Q92796 374-475, limits assumed, looked up): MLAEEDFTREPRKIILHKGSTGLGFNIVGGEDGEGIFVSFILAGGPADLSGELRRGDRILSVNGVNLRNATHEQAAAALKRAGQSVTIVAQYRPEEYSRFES

T2: GRIP1_4, Q9Y3R0
T2 sequence (Q9Y3R0 467-571, limits assumed, looked up): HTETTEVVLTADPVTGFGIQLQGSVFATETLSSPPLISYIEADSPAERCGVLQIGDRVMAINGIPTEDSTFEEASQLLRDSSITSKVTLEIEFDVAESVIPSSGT

T3: LIN7C, Q9NUP9
T3 sequence (Q9NUP9 88-185, limits assumed, looked up): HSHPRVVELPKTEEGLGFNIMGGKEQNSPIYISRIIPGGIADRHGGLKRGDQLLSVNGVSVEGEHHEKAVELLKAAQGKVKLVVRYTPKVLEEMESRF

T4: MPDZ_12, O75970
T4 sequence (O75970 1857-1958, limits assumed, looked up): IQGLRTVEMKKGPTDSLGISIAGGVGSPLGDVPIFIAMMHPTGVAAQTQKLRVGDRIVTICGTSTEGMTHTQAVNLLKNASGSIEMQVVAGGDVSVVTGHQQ

T5: PARD3B_1, Q8TEW8
T5 sequence (Q8TEW8 196-299, limits assumed, looked up): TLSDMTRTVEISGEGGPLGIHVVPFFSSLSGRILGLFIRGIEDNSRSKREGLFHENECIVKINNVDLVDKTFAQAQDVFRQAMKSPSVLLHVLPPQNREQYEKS

T6: RHPN1, Q8TCX5
T6 sequence (Q8TCX5 508-602, limits assumed, looked up): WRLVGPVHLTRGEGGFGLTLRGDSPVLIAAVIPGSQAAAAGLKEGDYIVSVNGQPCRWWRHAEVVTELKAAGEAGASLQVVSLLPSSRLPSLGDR

T7: SHANK1, Q9Y566
T7 sequence (Q9Y566 658-767, limits assumed, looked up): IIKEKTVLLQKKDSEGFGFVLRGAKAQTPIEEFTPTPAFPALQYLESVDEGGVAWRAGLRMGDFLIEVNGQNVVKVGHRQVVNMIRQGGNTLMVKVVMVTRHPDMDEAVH

T8: SIPA1L2, Q9P2F8
T8 sequence (Q9P2F8 945-1036, limits assumed, looked up): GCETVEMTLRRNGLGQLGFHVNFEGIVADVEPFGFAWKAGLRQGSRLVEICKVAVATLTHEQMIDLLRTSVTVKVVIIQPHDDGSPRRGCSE


Assays:
Assay in all cases: holdup assay
Set-up in all cases: key: below the threshold = too weak to quantify, mostly under pKd 3.1 to 4
Conditions in all cases: plain residues with an end cap or a label only (N-terminal biotin on a linker: ado-ado)
ARHGEF12, Q9NZN5-2 = target: ARHGEF12, Q9NZN5-2
ARHGEF12, Q9NZN5-2, sequence (Q9NZN5 other isoform, or with tags, fused parts or gaps): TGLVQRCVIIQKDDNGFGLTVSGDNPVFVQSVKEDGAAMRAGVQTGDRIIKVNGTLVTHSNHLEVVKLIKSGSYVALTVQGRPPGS

DLG1_2, Q12959 = target: DLG1_2, Q12959
DLG1_2, Q12959, sequence (Q12959 314-412): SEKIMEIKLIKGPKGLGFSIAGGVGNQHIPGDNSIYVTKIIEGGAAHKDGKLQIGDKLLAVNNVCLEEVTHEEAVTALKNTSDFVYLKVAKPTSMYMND

DLG3_3, Q92796 = target: T1, DLG3_3, Q92796
FRMPD2_1, Q68DX3 = target: FRMPD2_1, Q68DX3
FRMPD2_1, Q68DX3, sequence (Q68DX3 770-861): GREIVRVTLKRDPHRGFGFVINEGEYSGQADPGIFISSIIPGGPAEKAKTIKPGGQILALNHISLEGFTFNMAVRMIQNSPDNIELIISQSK

FRMPD3, Q5JV73 = target: FRMPD3, Q5JV73
FRMPD3, Q5JV73, sequence (Q5JV73 12-100): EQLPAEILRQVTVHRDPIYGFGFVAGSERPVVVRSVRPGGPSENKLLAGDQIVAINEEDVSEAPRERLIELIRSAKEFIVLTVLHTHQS

GORASP1, Q9BQQ3 = target: GORASP1, Q9BQQ3
GORASP1, Q9BQQ3, sequence (Q9BQQ3 1-208): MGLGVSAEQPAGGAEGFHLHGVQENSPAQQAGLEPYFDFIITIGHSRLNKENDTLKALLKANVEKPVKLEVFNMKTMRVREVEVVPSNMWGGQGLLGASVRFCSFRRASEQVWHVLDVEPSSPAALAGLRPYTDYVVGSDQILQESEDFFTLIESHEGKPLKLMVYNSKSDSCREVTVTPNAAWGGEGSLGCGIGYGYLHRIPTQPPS

GRID2IP_2, A4D2P6 = target: GRID2IP_2, A4D2P6
GRID2IP_2, A4D2P6, sequence (A4D2P6 272-370): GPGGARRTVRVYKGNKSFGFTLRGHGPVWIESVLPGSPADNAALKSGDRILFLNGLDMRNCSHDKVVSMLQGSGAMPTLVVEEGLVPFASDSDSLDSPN

GRIP1_4, Q9Y3R0 = target: T2, GRIP1_4, Q9Y3R0
GRIP2_4, Q9C0E4 = target: GRIP2_4, Q9C0E4
GRIP2_4, Q9C0E4, sequence (Q9C0E4 446-548): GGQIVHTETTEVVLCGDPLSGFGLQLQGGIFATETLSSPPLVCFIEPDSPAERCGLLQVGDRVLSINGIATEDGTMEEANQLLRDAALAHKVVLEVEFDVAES

HTRA2, O43464 = target: HTRA2, O43464
HTRA2, O43464, sequence (O43464 355-458): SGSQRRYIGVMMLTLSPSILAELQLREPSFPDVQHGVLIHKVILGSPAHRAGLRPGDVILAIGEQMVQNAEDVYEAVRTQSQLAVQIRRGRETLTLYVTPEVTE

Inadl_1, Q8NI35 = target: Inadl_1, Q8NI35
Inadl_1, Q8NI35, sequence (Q8NI35 113-229): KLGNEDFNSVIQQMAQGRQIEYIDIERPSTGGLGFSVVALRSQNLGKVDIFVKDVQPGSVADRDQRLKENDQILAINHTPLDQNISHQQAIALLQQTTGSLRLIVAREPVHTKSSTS

Inadl_2, Q8NI35 = target: Inadl_2, Q8NI35
Inadl_2, Q8NI35, sequence (Q8NI35 238-335): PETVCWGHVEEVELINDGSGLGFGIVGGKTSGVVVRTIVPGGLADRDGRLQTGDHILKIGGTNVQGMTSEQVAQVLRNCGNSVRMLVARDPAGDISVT

Inadl_6, Q8NI35 = target: Inadl_6, Q8NI35
Inadl_6, Q8NI35, sequence (Q8NI35 1058-1167): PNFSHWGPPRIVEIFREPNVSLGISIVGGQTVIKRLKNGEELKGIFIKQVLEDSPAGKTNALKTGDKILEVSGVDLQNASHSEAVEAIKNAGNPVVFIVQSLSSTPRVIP

LDB3, O75112 = target: LDB3, O75112
LDB3, O75112, sequence (O75112 1-94): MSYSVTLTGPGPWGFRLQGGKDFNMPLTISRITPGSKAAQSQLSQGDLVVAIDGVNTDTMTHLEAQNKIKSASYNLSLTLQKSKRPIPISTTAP

LIN7C, Q9NUP9 = target: T3, LIN7C, Q9NUP9
LNX1_3, Q8TBB1 = target: LNX1_3, Q8TBB1
LNX1_3, Q8TBB1, sequence (Q8TBB1 500-596): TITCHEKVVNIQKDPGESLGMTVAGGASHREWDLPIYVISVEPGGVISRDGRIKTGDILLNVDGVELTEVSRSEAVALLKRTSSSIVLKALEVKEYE

MAGI2_2, Q86UL8 = target: MAGI2_2, Q86UL8
MAGI2_2, Q86UL8, sequence (Q86UL8 410-522): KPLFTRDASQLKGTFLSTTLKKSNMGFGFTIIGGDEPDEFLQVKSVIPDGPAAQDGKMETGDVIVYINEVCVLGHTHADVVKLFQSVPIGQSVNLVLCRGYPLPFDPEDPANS

MAGI2_6, Q86UL8 = target: MAGI2_6, Q86UL8
MAGI2_6, Q86UL8, sequence (Q86UL8 1141-1229): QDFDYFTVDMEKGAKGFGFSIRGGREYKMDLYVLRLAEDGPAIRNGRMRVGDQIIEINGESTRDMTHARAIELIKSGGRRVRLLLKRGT

MPDZ_12, O75970 = target: T4, MPDZ_12, O75970
NHERF2_2, Q15599 = target: NHERF2_2, Q15599
NHERF2_2, Q15599, sequence (Q15599 142-238): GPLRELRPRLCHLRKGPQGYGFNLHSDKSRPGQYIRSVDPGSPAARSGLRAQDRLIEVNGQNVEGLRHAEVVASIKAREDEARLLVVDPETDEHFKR

NHERF4_1, Q86UT5-2 = target: NHERF4_1, Q86UT5-2
NHERF4_1, Q86UT5-2, sequence (Q86UT5 other isoform, or with tags, fused parts or gaps): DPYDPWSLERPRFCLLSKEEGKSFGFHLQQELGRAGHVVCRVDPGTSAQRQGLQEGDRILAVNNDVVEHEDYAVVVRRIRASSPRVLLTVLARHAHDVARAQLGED

NHERF4_4, Q86UT5 = target: NHERF4_4, Q86UT5
NHERF4_4, Q86UT5, sequence (Q86UT5 464-550): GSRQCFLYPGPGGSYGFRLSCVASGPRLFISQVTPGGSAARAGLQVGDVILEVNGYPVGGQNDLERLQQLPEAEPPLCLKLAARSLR

PARD3B_1, Q8TEW8 = target: T5, PARD3B_1, Q8TEW8
PTPN3, P26045 = target: PTPN3, P26045
PTPN3, P26045, sequence (P26045 505-587): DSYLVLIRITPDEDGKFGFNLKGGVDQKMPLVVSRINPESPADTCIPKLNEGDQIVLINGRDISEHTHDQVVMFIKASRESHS

RHPN1, Q8TCX5 = target: T6, RHPN1, Q8TCX5
SCRIB_3, Q14160 = target: SCRIB_3, Q14160
SCRIB_3, Q14160, sequence (Q14160 999-1103): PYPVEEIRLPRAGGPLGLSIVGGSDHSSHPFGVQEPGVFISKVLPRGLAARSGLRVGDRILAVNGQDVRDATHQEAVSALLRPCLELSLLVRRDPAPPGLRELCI

SHANK1, Q9Y566 = target: T7, SHANK1, Q9Y566
SIPA1L2, Q9P2F8 = target: T8, SIPA1L2, Q9P2F8
SNX27, Q96L92 = target: SNX27, Q96L92

Row | pKd (ARHGEF12, Q9NZN5-2) | pKd (DLG1_2, Q12959) | pKd (DLG3_3, Q92796) | pKd (FRMPD2_1, Q68DX3) | pKd (FRMPD3, Q5JV73) | pKd (GORASP1, Q9BQQ3) | pKd (GRID2IP_2, A4D2P6) | pKd (GRIP1_4, Q9Y3R0) | pKd (GRIP2_4, Q9C0E4) | pKd (HTRA2, O43464) | pKd (Inadl_1, Q8NI35) | pKd (Inadl_2, Q8NI35) | pKd (Inadl_6, Q8NI35) | pKd (LDB3, O75112) | pKd (LIN7C, Q9NUP9) | pKd (LNX1_3, Q8TBB1) | pKd (MAGI2_2, Q86UL8) | pKd (MAGI2_6, Q86UL8) | pKd (MPDZ_12, O75970) | pKd (NHERF2_2, Q15599) | Binder | also measured
1 | below the threshold | below the threshold | below the threshold | 3.89 | below the threshold | 4.71 | below the threshold | below the threshold | below the threshold | 3.88 | 3.69 | 4.77 | below the threshold | below the threshold | 3.53 | 3.96 | 3.91 | below the threshold | below the threshold | below the threshold | QSLNRMEYIV [JAG1, P78504] | pKd (NHERF4_1, Q86UT5-2): below the threshold; pKd (NHERF4_4, Q86UT5): below the threshold; pKd (PARD3B_1, Q8TEW8): 3.83; pKd (PTPN3, P26045): below the threshold; pKd (RHPN1, Q8TCX5): below the threshold; pKd (SCRIB_3, Q14160): below the threshold; pKd (SHANK1, Q9Y566): below the threshold; pKd (SIPA1L2, Q9P2F8): below the threshold; pKd (SNX27, Q96L92): below the threshold
2 | 3.98 | 4.04 | 4.27 | below the threshold | below the threshold | 3.76 | 3.84 | below the threshold | below the threshold | below the threshold | below the threshold | below the threshold | below the threshold | below the threshold | below the threshold | below the threshold | 4.95 | below the threshold | below the threshold | 3.78 | LPHGHSTTRV [NLGN4X, Q8N0W4] | pKd (NHERF4_1, Q86UT5-2): 3.76; pKd (NHERF4_4, Q86UT5): below the threshold; pKd (PARD3B_1, Q8TEW8): below the threshold; pKd (PTPN3, P26045): 4.36; pKd (RHPN1, Q8TCX5): 4.04; pKd (SCRIB_3, Q14160): below the threshold; pKd (SHANK1, Q9Y566): 4.88; pKd (SIPA1L2, Q9P2F8): below the threshold; pKd (SNX27, Q96L92): 5.18

Second part, the binder before the results:

Row | Binder | pKd (ARHGEF12, Q9NZN5-2) | pKd (DLG1_2, Q12959) | pKd (DLG3_3, Q92796) | pKd (FRMPD2_1, Q68DX3) | pKd (FRMPD3, Q5JV73) | pKd (GORASP1, Q9BQQ3) | pKd (GRID2IP_2, A4D2P6) | pKd (GRIP1_4, Q9Y3R0) | pKd (GRIP2_4, Q9C0E4) | pKd (HTRA2, O43464) | pKd (Inadl_1, Q8NI35) | pKd (Inadl_2, Q8NI35) | pKd (Inadl_6, Q8NI35) | pKd (LDB3, O75112) | pKd (LIN7C, Q9NUP9) | pKd (LNX1_3, Q8TBB1) | pKd (MAGI2_2, Q86UL8) | pKd (MAGI2_6, Q86UL8) | pKd (MPDZ_12, O75970) | pKd (NHERF2_2, Q15599) | also measured
3 | GNSVLKSTQF [SLC22A12, Q96S37] | below the threshold | below the threshold | below the threshold | below the threshold | below the threshold | below the threshold | below the threshold | below the threshold | below the threshold | below the threshold | below the threshold | below the threshold | below the threshold | below the threshold | 4.12 | below the threshold | below the threshold | below the threshold | below the threshold | 4.47 | pKd (NHERF4_1, Q86UT5-2): 4.1; pKd (NHERF4_4, Q86UT5): below the threshold; pKd (PARD3B_1, Q8TEW8): 4.21; pKd (PTPN3, P26045): 4.59; pKd (RHPN1, Q8TCX5): below the threshold; pKd (SCRIB_3, Q14160): below the threshold; pKd (SHANK1, Q9Y566): 4.96; pKd (SIPA1L2, Q9P2F8): below the threshold; pKd (SNX27, Q96L92): 4.95
4 | RHGSCVETSL [TMEM151B, Q8IW70] | 5.07 | 4.88 | 4.2 | below the threshold | 3.5 | below the threshold | 4.36 | below the threshold | below the threshold | below the threshold | below the threshold | below the threshold | 4.31 | below the threshold | 4.43 | below the threshold | 3.66 | 4.16 | below the threshold | 4.75 | pKd (NHERF4_1, Q86UT5-2): 4.51; pKd (NHERF4_4, Q86UT5): below the threshold; pKd (PARD3B_1, Q8TEW8): 3.95; pKd (PTPN3, P26045): 5; pKd (RHPN1, Q8TCX5): 5.02; pKd (SCRIB_3, Q14160): 5.36; pKd (SHANK1, Q9Y566): 4.64; pKd (SIPA1L2, Q9P2F8): below the threshold; pKd (SNX27, Q96L92): 5.55
5 | VRNLPESEEL [MYOZ3, Q8TDC0] | below the threshold | below the threshold | below the threshold | below the threshold | below the threshold | below the threshold | below the threshold | below the threshold | below the threshold | below the threshold | below the threshold | below the threshold | below the threshold | 5.19 | below the threshold | below the threshold | below the threshold | 4.01 | below the threshold | 3.64 | pKd (NHERF4_1, Q86UT5-2): 4.3; pKd (NHERF4_4, Q86UT5): 3.85; pKd (PARD3B_1, Q8TEW8): 3.58; pKd (PTPN3, P26045): 3.91; pKd (RHPN1, Q8TCX5): below the threshold; pKd (SCRIB_3, Q14160): below the threshold; pKd (SHANK1, Q9Y566): below the threshold; pKd (SIPA1L2, Q9P2F8): below the threshold; pKd (SNX27, Q96L92): 3.71

Reference: paper PMC9482650, “Quantitative fragmentomics allow affinity mapping of interactomes” (Nature Communications, 2022)
